Experimental data taken from publication PMC7522722, “Differential epigenetic regulation between the alternative promoters, PRDM1α and PRDM1β, of the tumour suppressor gene PRDM1 in human multiple myeloma cells”.

Experiments:
[1] = biological target: T1, TP53 (recombinant human, Calbiochem 506165) (human, UniProt P04637 1-393); assay: EMSA; anti-TP53 antibody tested; EMSA as in a cited earlier paper; buffer, salt, pH and temperature not given; competitor 100x excess added 10 min before probe; antibody preincubation 1 h on ice; settings: protein: commercial; chain copies: 4; label: 32P (Klenow fill-in with [alpha-32P]-dCTP); 5' overhang 1 nt (G) on strand 2, filled in with labelled dC
T1 sequence (P04637 whole entry): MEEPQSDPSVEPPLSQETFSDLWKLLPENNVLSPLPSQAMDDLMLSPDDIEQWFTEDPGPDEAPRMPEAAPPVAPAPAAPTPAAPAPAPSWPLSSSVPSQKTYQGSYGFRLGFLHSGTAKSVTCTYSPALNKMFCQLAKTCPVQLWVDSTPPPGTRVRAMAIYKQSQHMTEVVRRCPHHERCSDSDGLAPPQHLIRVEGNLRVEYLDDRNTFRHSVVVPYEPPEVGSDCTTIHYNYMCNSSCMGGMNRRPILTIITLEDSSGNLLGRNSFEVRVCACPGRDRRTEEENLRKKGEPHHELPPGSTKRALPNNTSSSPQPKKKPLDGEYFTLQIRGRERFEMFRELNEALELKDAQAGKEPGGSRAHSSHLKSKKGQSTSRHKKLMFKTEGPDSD

[2] = biological target: T1, TP53 (recombinant human, Calbiochem …); assay: EMSA; shifted band faded by anti-TP53 antibody; EMSA as in a cited earlier paper; buffer, salt, pH and temperature not given; competitor 100x excess added 10 min before probe; antibody preincubation 1 h on ice; settings: protein: commercial; chain copies: 4; label: 32P (Klenow fill-in with [alpha-32P]-dCTP); 5' overhang 1 nt (G) on strand 1, filled in with labelled dC

| Binder | binding result [1] | binding result [2] |
| --- | --- | --- |
| TP53 probe (putative TP53 site, Panomics) (dsDNA) DNA 1: TACAGAACATGTCTAAGCATGCTGGGG DNA 2: GCCCCAGCATGCTTAGACATGTTCTGTA | binds | – |
| wtFOXA1 probe (dsDNA) DNA 1: GGAAAGTGCAAGTCTGGACATGTTTATCAAGAGG DNA 2: CCTCTTGATAAACATGTCCAGACTTGCACTTTC | – | binds |
